Experimental data: patent publication US20250051731A1, “COMPOSITIONS AND METHODS FOR ESTABLISHMENT OF BOVINE-INDUCED PLURIPOTENT STEM CELLS” (University of Connecticut, priority 2021, published 2025)

Key:
H3K9me3 = experiment: Immunostaining of H3K9me3 in bMSCs; type: cell-based, bovine; conditions: bMSCs overexpressing human KDM4A vs retroviral vector control
Method: (§1) Immunostaining: For immunofluorescence, the cells were first fixed in 4% PFA for 15 min at room temperature. Following fixation, the cells were treated with 0.5% Triton X-100 in PBS for 15 min at room temperature for cell membrane permeabilization. After blocking with goat serum (Cell Signaling Technology, Danvers, MA, USA), the cells were incubated in goat serum containing primary antibodies for 2 h at 37° C., followed by secondary antibodies at room temperature for 1 h. Cells were counter-stained with DAPI and imaged under a Nikon fluorescence microscope. Primary antibodies including rabbit anti-OCT4 (Santa Cruz, CA, USA), rabbit anti-SOX2 (Merck Millipore), and mouse anti-NANOG (Merck Millipore) were used at 1:100 dilution while mouse anti-AFP (1:50; Cloud-clone Corp., TX, USA), rabbit anti-TUJ1 (1:500) and mouse anti-SMA (1:400) (Thermo Fisher Scientific) were diluted variously according to their manufacturer's instructions. Alexa Fluor 488 or 594 conjugated goat anti-rabbit or goat anti-mouse secondary antibody (Cell Signaling Technology) were used in 1:1000 dilution. For cell surface marker staining, the cells in different reprogramming conditions were stained with NL557-conjugated TRA-1-60 (1:100), SSEA-3 (1:50; R&D Systems, Minneapolis, MN, USA) and Alexa Fluor 594 conjugated SSEA-4 (1:100; BioLegend, San Diego, CA, USA) according to the manufacturer's protocol.

H3K9me2 = experiment: Immunostaining of H3K9me2 in bMSCs; type: cell-based, bovine; conditions: bMSCs overexpressing human KDM4A vs vector control
Method: as §1

B1: KDM4A: human lysine-specific demethylase 4A overexpressed in bMSCs from pMXs retroviral vector (protein, UniProt O75164 2-1064, looked up)
Lysine-specific demethylase 4A: ASESETLNPSARIMTFYPTMEEFRNFSRYIAYIESQGAHRAGLAKVVPPKEWKPRASYDDIDDLVIPAPIQQLVTGQSGLFTQYNIQKKAMTVREFRKIANSDKYCTPRYSEFEELERKYWKNLTFNPPIYGADVNGTLYEKHVDEWNIGRLRTILDLVEKESGITIEGVNTPYLYFGMWKTSFAWHTEDMDLYSINYLHFGEPKSWYSVPPEHGKRLERLAKGFFPGSAQSCEAFLRHKMTLISPLMLKKYGIPFDKVTQEAGEFMITFPYGYHAGFNHGFNCAESTNFATRRWIEYGKQAVLCSCRKDMVKISMDVFVRKFQPERYKLWKAGKDNTVIDHTLPTPEAAEFLKESELPPRAGNEEECPEEDMEGVEDGEEGDLKTSLAKHRIGTKRHRVCLEIPQEVSQSELFPKEDLSSEQYEMTECPAALAPVRPTHSSVRQVEDGLTFPDYSDSTEVKFEELKNVKLEEEDEEEEQAAAALDLSVNPASVGGRLVFSGSKKKSSSSLGSGSSRDSISSDSETSEPLSCRAQGQTGVLTVHSYAKGDGRVTVGEPCTRKKGSAARSFSERELAEVADEYMFSLEENKKSKGRRQPLSKLPRHHPLVLQECVSDDETSEQLTPEEEAEETEAWAKPLSQLWQNRPPNFEAEKEFNETMAQQAPHCAVCMIFQTYHQVEFGGFNQNCGNASDLAPQKQRTKPLIPEMCFTSTGCSTDINLSTPYLEEDGTSILVSCKKCSVRVHASCYGVPPAKASEDWMCSRCSANALEEDCCLCSLRGGALQRANDDRWVHVSCAVAILEARFVNIAERSPVDVSKIPLPRFKLKCIFCKKRRKRTAGCCVQCSHGRCPTAFHVSCAQAAGVMMQPDDWPFVVFITCFRHKIPNLERAKGALQSITAGQKVISKHKNGRFYQCEVVRLTTETFYEVNFDDGSFSDNLYPEDIVSQDCLQFGPPAEGEVVQVRWTDGQVYGAKFVASHPIQMYQVEFEDGSQLVVKRDDVYTLDEELPKRVKSRLSVASDMRFNEIFTEKEVKQEKKRQRVINSRYREDYIEPALYRAIME
With B1 the H3K9me3 by immunostaining (H3K9me3) was “reduced” and the H3K9me2 by immunostaining (H3K9me2) was “not”.
